From publication PMC10786891, “Massively parallel profiling of RNA-targeting CRISPR-Cas13d”
Changes are numbered by the printed parent chain. Names may count otherwise.

T1: EsCas13d, nuclease-dead (Eubacterium siraeum, UniProt B0MS50, R295A;H300A;R849A;H854A)
T1 sequence: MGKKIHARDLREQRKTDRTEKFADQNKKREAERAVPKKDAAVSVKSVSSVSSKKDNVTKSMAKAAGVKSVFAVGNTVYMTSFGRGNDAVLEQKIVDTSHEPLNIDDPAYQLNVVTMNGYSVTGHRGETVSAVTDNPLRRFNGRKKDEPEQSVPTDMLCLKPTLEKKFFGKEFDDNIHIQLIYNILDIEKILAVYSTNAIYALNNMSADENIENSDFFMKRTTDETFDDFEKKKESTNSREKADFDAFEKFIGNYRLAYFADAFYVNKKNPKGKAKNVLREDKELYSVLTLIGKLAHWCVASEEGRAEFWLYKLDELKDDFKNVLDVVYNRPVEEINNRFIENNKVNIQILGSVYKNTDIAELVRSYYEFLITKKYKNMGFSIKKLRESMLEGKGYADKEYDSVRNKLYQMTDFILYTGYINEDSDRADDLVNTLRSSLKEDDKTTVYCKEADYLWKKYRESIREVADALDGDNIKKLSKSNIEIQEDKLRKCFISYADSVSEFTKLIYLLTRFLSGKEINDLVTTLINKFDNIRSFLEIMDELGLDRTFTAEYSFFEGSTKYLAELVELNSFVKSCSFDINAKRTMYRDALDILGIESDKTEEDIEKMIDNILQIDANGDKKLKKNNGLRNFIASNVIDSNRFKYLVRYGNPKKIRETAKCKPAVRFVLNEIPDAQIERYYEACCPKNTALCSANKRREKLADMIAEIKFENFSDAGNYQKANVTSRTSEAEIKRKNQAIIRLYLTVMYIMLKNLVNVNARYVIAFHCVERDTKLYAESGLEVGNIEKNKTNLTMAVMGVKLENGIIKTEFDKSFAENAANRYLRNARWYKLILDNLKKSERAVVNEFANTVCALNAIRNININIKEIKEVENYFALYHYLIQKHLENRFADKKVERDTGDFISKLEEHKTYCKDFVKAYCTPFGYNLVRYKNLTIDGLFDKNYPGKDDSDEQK

B1: target 1 insU 3' of 12,insG 3' of 3 (mixed)
RNA 1: CACCCGUGCAAAAAUGCAGGGGUCUAAAACUGAGCGGAUAACCUCUCUAUGG
RNA 2: GGGAAUGGAUCCACAUCUACGAAUUCGUACCAUAGAGAGGUUUAUCCGCUGCACCGAGAUCGGAAGAGCACACGU
B2: target 1 insA 3' of 21,insC 3' of 18 (mixed)
RNA 1: B1 RNA 1
RNA 2: GGGAAUGGAUCCACAUCUACGAAUUCGUACCAAUACGAGAGGUUAUCCGCUCACCGAGAUCGGAAGAGCACACGU
B3: target 1 C7U,U19C (mixed)
RNA 1: B1 RNA 1
RNA 2: GGGAAUGGAUCCACAUCUACGAAUUCGUACCACAGAGAGGUUAUUCGCUCACCGAGAUCGGAAGAGCACACGU
B4: target 3 insC 3' of 4 (mixed)
RNA 1: CACCCGUGCAAAAUUGCAGGGGUCUAAAACGACCUGAAUAUUUCAGAUCAAA
RNA 2: GGGAAUGGAUCCACAUCUACGAAUUCGUUUUUGAUCUGAAAUAUUCAGCGUCUGCAGAUCGGAAGAGCACACGU
B5: target 3 G4A,A5C (mixed)
RNA 1: B4 RNA 1
RNA 2: GGGAAUGGAUCCACAUCUACGAAUUCGUUUUUGAUCUGAAAUAUUCCAGUCUGCAGAUCGGAAGAGCACACGU
B6: target 3 U2A,G4C (mixed)
RNA 1: B4 RNA 1
RNA 2: B5 RNA 2 with C47A, A48C, U50A
B7: target 3 insG 3' of 7,insC 3' of 7 (mixed)
RNA 1: B4 RNA 1
RNA 2: GGGAAUGGAUCCACAUCUACGAAUUCGUUUUUGAUCUGAAAUAUUGCCAGGUCUGCAGAUCGGAAGAGCACACGU
B8: target 3 G4A,U22C (mixed)
RNA 1: B4 RNA 1
RNA 2: B5 RNA 2 with U30C, C47A
B9: target 3 C1A,A9G (mixed)
RNA 1: B4 RNA 1
RNA 2: B5 RNA 2 with A43G, C47A, A48G, C51A
B10: target 3 insU 3' of 22,insC 3' of 5 (mixed)
RNA 1: B4 RNA 1
RNA 2: GGGAAUGGAUCCACAUCUACGAAUUCGUUUUUUGAUCUGAAAUAUUCACGGUCUGCAGAUCGGAAGAGCACACGU
B11: target 3 insG 3' of 6,insU 3' of 3 (mixed)
RNA 1: B4 RNA 1
RNA 2: B7 RNA 2 with G46C, C47G, C48A, A49G, G51U
B12: target 3 insC 3' of 5,insC 3' of 3 (mixed)
RNA 1: B4 RNA 1
RNA 2: B7 RNA 2 with G46C, C47A, A49G, G51C
B13: target 3 U8G,U22A (mixed)
RNA 1: B4 RNA 1
RNA 2: B5 RNA 2 with U30A, U44G, C47A, A48G
B14: target 3 A12C,U22C (mixed)
RNA 1: B4 RNA 1
RNA 2: B5 RNA 2 with U30C, A40C, C47A, A48G
B15: target 3 insA 3' of 10,insU 3' of 4 (mixed)
RNA 1: B4 RNA 1
RNA 2: B7 RNA 2 with U44A, G46U, C48A, A49G, G50U
B16: target 3 del21,del22 (mixed)
RNA 1: B4 RNA 1
RNA 2: GGGAAUGGAUCCACAUCUACGAAUUCGUUUGAUCUGAAAUAUUCAGGUCUGCAGAUCGGAAGAGCACACGU
B17: target 3 G3A,U7A (mixed)
RNA 1: B4 RNA 1
RNA 2: B5 RNA 2 with U45A, C47A, A48G, G49A
B18: target 3 U7A,U22C (mixed)
RNA 1: B4 RNA 1
RNA 2: B5 RNA 2 with U30C, U45A, C47A, A48G
B19: target 3 U2G,U22G (mixed)
RNA 1: B4 RNA 1
RNA 2: B5 RNA 2 with U30G, C47A, A48G, U50G
B20: target 3 insU 3' of 6,insG 3' of 5 (mixed)
RNA 1: B4 RNA 1
RNA 2: B7 RNA 2 with G46C, C47U, C48A, A49G
B21: target 3 insU 3' of 22,insU 3' of 4 (mixed)
RNA 1: B4 RNA 1
RNA 2: B10 RNA 2 with C49G, G50U
B22: target 3 C16U,U22C (mixed)
RNA 1: B4 RNA 1
RNA 2: B5 RNA 2 with U30C, C36U, C47A, A48G
B23: target 3 U2G,C6A (mixed)
RNA 1: B4 RNA 1
RNA 2: B5 RNA 2 with C46A, C47A, A48G, U50G
B24: target 3 G4A,A12U (mixed)
RNA 1: B4 RNA 1
RNA 2: B5 RNA 2 with A40U, C47A
B25: target 3 insA 3' of 22,insA 3' of 22 (mixed)
RNA 1: B4 RNA 1
RNA 2: GGGAAUGGAUCCACAUCUACGAAUUCGUUUAAUUGAUCUGAAAUAUUCAGGUCUGCAGAUCGGAAGAGCACACGU
B26: target 3 U2G,A9G (mixed)
RNA 1: B4 RNA 1
RNA 2: B5 RNA 2 with A43G, C47A, A48G, U50G
B27: target 3 insU 3' of 6,insU 3' of 4 (mixed)
RNA 1: B4 RNA 1
RNA 2: B7 RNA 2 with G46C, C47U, C48A, A49G, G50U
B28: target 3 insG 3' of 9,insC 3' of 5 (mixed)
RNA 1: B4 RNA 1
RNA 2: B7 RNA 2 with U44G, G46U, C48A, A49C
B29: target 3 U2G,U7A (mixed)
RNA 1: B4 RNA 1
RNA 2: B5 RNA 2 with U45A, C47A, A48G, U50G
B30: target 3 insU 3' of 22,insA 3' of 7 (mixed)
RNA 1: B4 RNA 1
RNA 2: B10 RNA 2 with C47A, A48C, C49A
B31: target 3 U2G,G3U (mixed)
RNA 1: B4 RNA 1
RNA 2: B5 RNA 2 with C47A, A48G, G49U, U50G
B32: target 3 insC 3' of 12,insA 3' of 2 (mixed)
RNA 1: B4 RNA 1
RNA 2: B7 RNA 2 with A41C, U42A, A43U, U44A, G46U, C48A, A49G, G51U, U52A
B33: target 3 insG 3' of 6,insA 3' of 2 (mixed)
RNA 1: B4 RNA 1
RNA 2: B7 RNA 2 with G46C, C47G, C48A, A49G, G51U, U52A

Each binder was assayed against T1, EsCas13d, nuclease-dead (assay: crRNA (strand 1, pre-loaded); Mg2+; 40 mM Tris-HCl pH 7.5, 150 mM NaCl, 6 mM MgCl2, 1 mM DTT, 0.1% Tween-20, 0.2 mg/ml BSA; 25 C; 10 min per concentration, then washed). Conditions: tags: His6-TwinStrep-SUMO cleaved; N-terminal SNAP kept (SNAP-Surface 488); label: 3' end held by stalled T7 RNA polymerase.

| Binder | Kd |
| --- | --- |
| B1 | 6.3 ± 0.4 nM |
| B2 | 47 ± 7 nM |
| B3 | 23.5 ± 1.7 nM |
| B4 | 19 ± 2.45 nM |
| B5 | 99 ± 21 nM |
| B6 | 5.05 ± 0.55 nM |
| B7 | 44.5 ± 5 nM |
| B8 | 7.05 ± 1 nM |
| B9 | 61 ± 16.5 nM |
| B10 | 24.1 ± 2.9 nM |
| B11 | 6.95 ± 0.6 nM |
| B12 | 19.6 ± 1.9 nM |
| B13 | 72.5 ± 13.5 nM |
| B14 | 53 ± 20 nM |
| B15 | 59 ± 13 nM |
| B16 | 13.4 ± 1.7 nM |
| B17 | 72.5 ± 14.5 nM |

| Binder | Kd |
| --- | --- |
| B18 | 41 ± 6.5 nM |
| B19 | 61.5 ± 14.5 nM |
| B20 | 10.9 ± 0.9 nM |
| B21 | 4.9 ± 0.95 nM |
| B22 | 81.5 ± 30 nM |
| B23 | 11.3 ± 1.4 nM |
| B24 | 72.5 ± 11 nM |
| B25 | 19.4 ± 2.45 nM |
| B26 | 36 ± 5 nM |
| B27 | 6.95 ± 0.7 nM |
| B28 | 80.5 ± 12.5 nM |
| B29 | 6.55 ± 0.85 nM |
| B30 | 68.5 ± 19 nM |
| B31 | 9.2 ± 0.8 nM |
| B32 | ~102 nM |
| B33 | 15.6 ± 1.85 nM |
